# Experimental data as given in US20150017095A1 (AbbVie / Abbott, published 2015).
# T1: murine TNFα (murine, UniProt P06804 80-235)
# T1 construct: also called mouse TNFα; A-846899.0
# T1 sequence (looked up): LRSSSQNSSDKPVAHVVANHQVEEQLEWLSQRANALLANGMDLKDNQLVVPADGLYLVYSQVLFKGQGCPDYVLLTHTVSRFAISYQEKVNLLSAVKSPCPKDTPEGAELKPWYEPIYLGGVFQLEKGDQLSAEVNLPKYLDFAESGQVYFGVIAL
# How the values were obtained:
# murine TNFα [1] = molecular target: T1, murine TNFα; test: ELISA, TNFα binding activity (Example 2.2.3.3)
# murine TNFα [2] = molecular target: T1, murine TNFα; test: cell-based or functional assay
Binder,IC50 (murine TNFα [1]) [nM],"IC50, L929 assay (TNFα-induced cell death) (murine TNFα [2]) [nM]"
"anti-TNFα monoclonal antibody clone 8C11 (antibody, V domains shown, Murine hybridoma antibody against murine TNFα; also called 8C11-1E10; anti-mouse TNF monoclonal antibody) VH: EFQLQQSGPELVKPGASVRISCKASGYSFTDYNMNWVKQSNGKSLEWVGVINPNYGSSTYNQKFKGKATLTVDQSSSTAYMQLNSLTSEDSAVYYCARKWGQLGRGFFDVWGTGTTVTVSS VL: QIVLSQSPAILSASPGEKVTMTCRASSSVSYMHWFQQKPGSSPKPWIYATSNLASGVPARFSGSGSGTSYSLTISRVEAEDAATYYCQQWSSSPLTFGAGTKLELKR",0.201,5.85
"2B5-hSL-8C11 anti-murine TNFα/anti-PGE2 DVD-Ig with human short linker (bispecific antibody, DVD-Ig; Outer domain is 2B5 (PGE2), inner domain is 8C11 (murine TNFα); also called 2B5-huSL-8C11) VH: QVQLQQSGPELVRPGSSVKISCKASGYTFTKYWLGWVKQRPGHGLEWIGDIYPGYDYTHYNEKFKDKATLTVDTSSSTAYMQLSSLTSEDSAIYYCARSDGSSTYWGQGTLVTVSAASTKGPEFQLQQSGPELVKPGASVRISCKASGYSFTDYNMNWVKQSNGKSLEWVGVINPNYGSSTYNQKFKGKATLTVDQSSSTAYMQLNSLTSEDSAVYYCARKWGQLGRGFFDVWGTGTTVTVSS VL: DVLMTQTPLSLPVSLGDQASISCTSSQNIVHSNGNTYLEWYLQRPGQSPKLLIYKVSNRFSGVPDRFSGSGSGTVFTLKISRVEAEDLGVYYCFQVSHVPYTFGGGTKLEIKRTVAAPQIVLSQSPAILSASPGEKVTMTCRASSSVSYMHWFQQKPGSSPKPWIYATSNLASGVPARFSGSGSGTSYSLTISRVEAEDAATYYCQQWSSSPLTFGAGTKLELKR",0.234,4.39
"2B5-hLL-8C11 anti-murine TNFα/anti-PGE2 DVD-Ig with human long linker (bispecific antibody, human IgG1, DVD-Ig; Outer domain is 2B5 (PGE2), inner domain is 8C11 (murine TNFα)) VH: QVQLQQSGPELVRPGSSVKISCKASGYTFTKYWLGWVKQRPGHGLEWIGDIYPGYDYTHYNEKFKDKATLTVDTSSSTAYMQLSSLTSEDSAIYYCARSDGSSTYWGQGTLVTVSAASTKGPSVFPLAPEFQLQQSGPELVKPGASVRISCKASGYSFTDYNMNWVKQSNGKSLEWVGVINPNYGSSTYNQKFKGKATLTVDQSSSTAYMQLNSLTSEDSAVYYCARKWGQLGRGFFDVWGTGTTVTVSS VL: DVLMTQTPLSLPVSLGDQASISCTSSQNIVHSNGNTYLEWYLQRPGQSPKLLIYKVSNRFSGVPDRFSGSGSGTVFTLKISRVEAEDLGVYYCFQVSHVPYTFGGGTKLEIKRTVAAPSVFIFPPQIVLSQSPAILSASPGEKVTMTCRASSSVSYMHWFQQKPGSSPKPWIYATSNLASGVPARFSGSGSGTSYSLTISRVEAEDAATYYCQQWSSSPLTFGAGTKLELKR",0.256,0.088
